Measurements published in PMC4930772.
Blank lines part the entries; values can stand above or below the substance they belong to.

Molecular target: PP2A B56γ1 30-380 (UniProt Q13362)
Assay: ITC
[1] = reference: wild type, sites T680
[2] = reference: wild type, sites S670
[3] = reference: wild type, sites S676

- KD [1]: same; reference 2.91 ± 0.50
Substance: BubR1 647-720 (from UniProt O60566) SSD (T680D)

- KD (reference: wild type, sites S670,T680): same; reference 2.91 ± 0.50
Substance: BubR1 647-720 (from UniProt O60566) DSD (S670D/T680D)

- KD [1]: weaker; reference 2.91 ± 0.50
Substance: BubR1 647-720 (from UniProt O60566) AAAA (E678A/T680A/H681A)

- KD (reference: pS676 15-mer, sites T680): same; reference 0.69 ± 0.11
- KD (reference: unphosphorylated 15-mer, sites S676,T680): stronger; reference 2.80 ± 0.30
Substance: BubR1 667-681 (from UniProt O60566) pS676/pT680 15-mer

- KD (reference: wild type, sites S670,S676,T680): same; reference 2.91 ± 0.50
Substance: BubR1 647-720 (from UniProt O60566) 3D (S670D/S676D/T680D)

- KD (reference: unphosphorylated 15-mer, sites S670): stronger; reference 2.80 ± 0.30
Substance: BubR1 667-681 (from UniProt O60566) pS670 15-mer

- KD [2]: same; reference 2.91 ± 0.50
Substance: BubR1 647-720 (from UniProt O60566) DST (S670D)

- KD (reference: B56γ1 wild type, sites S670): weaker; reference 0.25 ± 0.06
Substance: BubR1 667-681 (from UniProt O60566) B56γ1 R188A

- KD (reference: unphosphorylated 15-mer, sites S676): stronger; reference 2.80 ± 0.30
Substance: BubR1 667-681 (from UniProt O60566) pS676 15-mer

- KD (reference: wild type, sites S670,S676): same; reference 2.91 ± 0.50
Substance: BubR1 647-720 (from UniProt O60566) DDT (S670D/S676D)

- KD (reference: wild type, sites S676,T680): same; reference 2.91 ± 0.50
Substance: BubR1 647-720 (from UniProt O60566) SDD (S676D/T680D)

- KD [2]: same; reference 2.91 ± 0.50
Substance: BubR1 647-720 (from UniProt O60566) S670A

- KD [3]: same; reference 2.91 ± 0.50
Substance: BubR1 647-720 (from UniProt O60566) SDT (S676D)

- KD [3]: same; reference 2.91 ± 0.50
Substance: BubR1 647-720 (from UniProt O60566) S676A
